The data set concerns the molecule itself. In words: electrophoretic mobility shift assay, in vitro translated protein on labeled Rev-DR2 oligonucleotide. As for the experimental part: The electrophoretic gel shift studies were carried out by using the indicated end-labeled oligonucleotides, in the presence of the murine PPAR GAMMA receptor, murine RXR ALPHA receptor, human REV-ERB ALPHA receptor produced by reticulocyte lysate, or non-programmed lysates (lysate). Binding competition experiments were performed by adding a 0, 10 or 100-fold excess of unlabeled Rev-DR2 oligonucleotide.
The pSG5-mPPAR-gamma, pSG5-mRXR-alpha and pSG5-hRev-erb alpha plasmids were transcribed in vitro with T7 polymerase and translated with the rabbit reticulocyte lysate system (Promega, Madison, Wis., USA). Gel shift experiments with REV-ERB ALPHA, PPAR GAMMA and/or RXR ALPHA proteins were carried out as previously described (Gervois, P. et al., Molecular Endocrinology 1999, 13(3): 400-409; Vu-Dac, N. et al., J. Biol. Chem. 1994, 269(49): 31012-31018). For the competition experiments, increasing quantities of the indicated unlabeled probe were added immediately before adding the labeled oligonucleotide. The complexes were resolved in 5% polyacrylamide gels using […] buffer (90 mM borate, 2.5 mM EDTA, pH 8.3) at room temperature. Gels were dried and exposed overnight at −70° C. on Rayon-X film (XOMAT-AR, Eastman Kodak, Rochester, N.Y., USA).
Lastly, binding of the PPAR GAMMA receptor to the Rev-DR2 site was studied. […]

B1: human REV-ERB ALPHA receptor (receptor)
chain: MTTLDSNNNTGGVITYIGSSGSSPSRTSPESLYSDNSNGSFQSLTQGCPTYFPPSPTGSLTQDPARSFGSIPPSLSDDGSPSSSSSSSSSSSSFYNGSPPGSLQVAMEDSSRVSPSKSTSNITKLNGMVLLCKVCGDVASGFHYGVHACEGCKGFFRRSIQQNIQYKRCLKNENCSIVRINRNRCQQCRFKKCLSVGMSRDAVRFGRIPKREKQRMLAEMQSAMNLANNQLSSQCPLETSPTQHPTPGPMGPSPPPAPVPSPLVGFSQFPQQLTPPRSPSPEPTVEDVISQVARAHREIFTYAHDKLGSSPGNFNANHASGSPPATTPHRWENQGCPPAPNDNNTLAAQRHNEALNGLRQAPSSYPPTWPPGPAHHSCHQSNSNGHRLCPTHVYAAPEGKAPANSPRQGNSKNVLLACPMNMYPHGRSGRTVQEIWEDFSMSFTPAVREVVEFAKHIPGFRDLSQHDQVTLLKAGTFEVLMVRFASLFNVKDQTVMFLSRTTYSLQELGAMGMGDLLSAMFDFSEKLNSLALTEEELGLFTAVVLVSADRSGMENSASVEQLQETLLRALRALVLKNRPLETSRFTKLLLKLPDLRTLNNMHSEKLLSFRVDAQ
notes: also called hRev-erb alpha
As to B1, the binding result is listed as “binds”.

(Values after US20050032064A1 (GENFIT, published 2005).)
